Measured values taken from US20090068207A1, “Compositions Containing Beta 2-Glycoprotein I-Derived Peptides for the Prevention and/or Treatment of Vascular Disease” (Vascular Biogenics Ltd., priority 2005, published 2009).
Several values for one entry are separate records, joined by “and”; a condition that tells them apart may be missing. Equal values may be shown once.

Legend:
ApoE-KO mice = test: Aortic sinus lesion area after oral administration in ApoE-KO mice; format: in vivo
Description: Assessment of Atherosclerosis: Quantification of atherosclerotic fatty streak lesions was done by calculating the lesion size in the aortic sinus as previously described (16) and by calculating the lesion size in the aorta. Briefly, after perfusion with saline Tris EDTA, the heart and the aorta were removed from the animals and the peripheral fat cleaned carefully. The upper section of the heart was embedded in OCT medium (10.24% w/w polyvinyl alcohol; 4.26% w/w polyethylene glycol; 85.50% w/w nonreactive ingredients) and frozen. Every other section (10 μm thick) throughout the aortic sinus (400 μm) was taken for analysis. The distal portion of the aortic sinus was recognized by the three valve cusps that are the junctions of the aorta to the heart. […] Lesion areas per section were scored on a grid (17) by an observer counting unidentified, numbered specimens. The aorta was dissected from the heart and surrounding adventitious tissue was removed. Fixation of the aorta and Sudan staining of the vessels were performed as previously described (21).
In order to determine the protective effect of mucosal administration of β2GPI on development of atherosclerosis, adult ApoE-KO mice were treated with oral administration of human β2GPI. 20 week-old male ApoE-KO mice, having advanced atherosclerotic lesions were treated monthly with human β2GPI (50 μg/dose) or PBS (0.2 ml) in 5 oral administrations (by gavage, as described hereinabove) given every other day, for four months. Lesion area calculated from cryosections of the aortic sinus were compared between control untreated 20 week old mice, and mice following 16 weeks oral administration of β2GPI or PBS.
10-11 week-old male ApoE-KO mice, having early atherosclerotic lesions, were treated with 5 oral administrations (by gavage, as described hereinabove) given every other day of human β2GPI peptide S-4 (SEQ ID NO: 14) or human β2GPI (50 μg/dose) or PBS (0.2 ml). Lesion areas calculated from cryosections of the aortic sinus were compared between control untreated, human β2GPI treated and S-4 human β2GPI-derived peptide treated mice at 8 weeks following the last oral administration of the antigens, or of PBS.

[1] = tested on: aorta tissue from ApoE-KO mice; test: RT-PCR analysis of cytokine expression in aorta; format: in vivo; settings: oral 100 μg/mouse, 5 times every other day; male ApoE-KO mice
Experimental: RT-PCR analysis of cytokine expression: 7-9 week old male ApoE-KO mice were tolerized by oral administration of β2GPI in 5 feedings, every other day, of human β2GPI (100 μg/mouse) or PBS, as control, by gavage, as detailed hereinabove. Three days following the oral administration of β2GPI, the mice were sacrificed, aortas collected and processed for RT-PCR analysis of the expression of anti-inflammatory Th2 type cytokine IL-10 and the proinflammatory Th1-type cytokine IFN-γ. The RT-PCR analysis was performed according to the protocol as described in detail by Colle et al (Journal of Immunol Methods 1997; 175-184). Briefly, RNA was extracted from the aortal tissue and reverse transcribed according to well-known, standard protocols, and the transcription products subjected to PCR amplification using the following primers: IL-10-forward primer 5′ […] 3′ (SEQ ID NO: 1), located at nucleotide positions 256-278 of IL-10 (GenBank Accession No. NM 010548 (SEQ ID NO: 2)) and reverse primer 5′[…] 3′ (SEQ ID NO: 3), located at nucleotide positions 532-556 of IL-10 (GenBank Accession No. NM 010548 (SEQ ID NO: 2)); IFN-γ-forward primer 5′ […] 3′ (SEQ ID NO: 4), located at nucleotide positions 372-397 of IFN-γ (GenBank Accession No. NM 008337 (SEQ ID NO: 5)), reverse primer 5′ […] 3′ (SEQ ID NO: 6), located at nucleotide positions 804-827 of IFN-γ (GenBank Accession No. NM 008337 (SEQ ID NO: 5)); and β-actin-forward primer 5′ […] 3′ (SEQ ID NO: 7), located at nucleotide positions 230-252 of β-actin (GenBank Accession No. NM 007393 (SEQ ID NO: 8)), and reverse primer 5′ […] 3′ (SEQ ID NO: 9), located at nucleotide positions […] of β-actin (GenBank Accession No. NM 007393 (SEQ ID NO: 8)). The resultant amplified IL-10, IFN-γ and β-actin transcripts were separated by electrophoresis on an agarose gel, and visualized by ehtidium bromide staining.
Male ApoE-KO mice 7-9 weeks of age were treated by oral administration of human β2GPI (100 μg/mouse) or PBS, as control, by gavage, as detailed hereinabove, 5 times, on every other day. […]

B1: Human β2 GPI: human beta2-glycoprotein I (SEQ ID NO: 10) purified from serum (protein)
chain: MISPVLILFSSFLCHVAIAGRTCPKPDDLPFSTVVPLKTFYEPGEEITYSCKPGYVSRGGMRKFICPLTGLWPINTLKCTPRVCPFAGILENGAVRYTTFEYPNTISFSCNTGFYLNGADSAKCTEEGKWSPELPVCAPIICPPPSIPTFATLRVYKPSAGNNSLYRDTAVFECLPQHAMFGNDTITCTTHGNWTKLPECREVKCPFPSRPDNGFVNYPAKPTLYYKDKATFGCHDGYSLDGPEEIECTKLGNWSAMPSCKASCKLPVKKATVVYQGERVKIQEKFKNGMLHGDKVSFFCKNKEKKCSYTEDAQCIDGTIEVPKCFKEHSSLAFWKTDASDVKPC
Aortic sinus lesion (μm^2) (ApoE-KO mice; End, oral 50 μg, 5 doses, ApoE-KO mice): 90833 ± 9502 μm^2 | reduction of progression of atherosclerotic lesions compared to PBS controls (ApoE-KO mice; oral 50 μg, 5 doses, then 8 weeks of chow diet, 10-11 week-old ApoE-KO mice): 47% | inhibition of progression of atherosclerotic lesions as compared to PBS control (ApoE-KO mice; oral 50 μg/dose, 5 administrations monthly for four months, 20 week-old ApoE-KO mice, 16 weeks): > 30% and 35% | expression of IFN-γ in aorta (RT-PCR) [1]: inhibition of expression | expression of IL-10 in aorta (RT-PCR) [1]: induction of expression | tissue levels of β-actin gene transcripts (RT-PCR) [1]: without any influence
